Earlier results in US12065466B2, “Methods and compositions for protein sequencing” (Quantum-Si Incorporated, priority 2020, dated 2024).
Substitutions are numbered along the chain they refer to.

B1: PS542: UBR-box domain homolog, SEQ ID NO: 171 (protein, listed as Trichuris suis)
chain: MRCNHVFANGEATYSCRGCAADPTCVLCASCFELSAHKEHKYMITTSSGTGYCDCGDPEAWKADPFCQQHQP
B2: PS514: UBR-box domain homolog, SEQ ID NO: 142 (protein, listed as Tribolium castaneum)
chain: MVCGRVFKLGEPTYSCRECGMDNTCVLCVNCFKNSEHRFHKYKMGTSQGGGCCDCGDVEAWKKAPFCDVHIA
B3: PS513: UBR-box domain homolog, SEQ ID NO: 141 (protein, listed as Pyrenophora seminiperda)
chain: MPCGHIFKNGEATYRCKTCTADDTCVLCARCFDASDHEGHQVFVSVSPGNSGCCDCGDDEAWVRPVHCNIHSA
B4: PS540: UBR-box domain homolog, SEQ ID NO: 169 (protein, listed as Clathrospora elynae)
chain: B3 chain with I70M
B5: PS532: UBR-box domain homolog, SEQ ID NO: 160 (protein, listed as Schizosaccharomyces cryophilus)
chain: MSCGRIFKKGEVFYRCKTCSVDSNSALCVKCFRATDHHGHETSFTISAGSGGCCDCGNSAAWIRDMPCKIHNR
B6: PS543: UBR-box domain homolog, SEQ ID NO: 172 (protein, listed as Trichinella spiralis)
chain: MKCNRQLICGEPTYCCLDCACDQTCIFCHACFQSSEHKNHRYSMSTSEGSGTCDCGDKEAWKSNYYCLNHKP
B7: PS523: UBR-box domain homolog, SEQ ID NO: 151 (protein)
chain: MAKSHRHTGRNCGRAFQPGEPLYRCQECAYDDTCVLCISCFNPDDHVNHHVSTHICNELHDGICDCGDAEAWNVPLHCKAEED
modifications: Saccharomycetaceae sp. Ashbya aceri
B8: PS544: UBR-box domain homolog, SEQ ID NO: 173 (protein, listed as Homo sapiens)
chain: MGPLGSLCGRVFKSGETTYSCRDCAIDPTCVLCMDCFQDSVHKNHRYKMHTSTGGGFCDCGDTEAWKTGPFCVNHEP
B9: PS518: UBR-box domain homolog, SEQ ID NO: 146 (protein, listed as Nilaparvata lugens)
chain: MVCGRVFKMGEPSYHCRECGMDATCVLCVDCFKKSSHRNHKYKMGTSIGGGCCDCGDVEAWKTEPYCEVHIA
B10: PS516: UBR-box domain homolog, SEQ ID NO: 144 (protein)
chain: MLCGKVFKTGEPTYSCRDCANDPTCVLCIDCFQNGAHKNHRYKMNTSGGGGYCDCGDQEAWTSHPFCNLHSP
modifications: Crassostrea gigas
B11: PS25: SEQ ID NO: 167 (protein, listed as Saccharomyces cerevisiae)
chain: MGSVHKHTGRNCGRKFKIGEPLYRCHECGCDDTCVLCIHCFNPKDHVNHHVCTDICTEFTSGICDCGDEEAWNSPLHCKAEEQ
B12: PS536: UBR-box domain homolog, SEQ ID NO: 164 (protein, listed as Aphis gossypii)
chain: MVCGRVFKMGEPTYNCRECGMDSTCVLCVDCFKRSPHKNHKYKMGTSYGGGCCDCGDVEAWKHDPYCQTHKL
B13: PS525: UBR-box domain homolog, SEQ ID NO: 153 (protein, listed as Mus musculus)
chain: MLCGKVFKSGETTYSCRDCAIDPTCVLCMDCFQSSVHKNHRYKMHTSTGGGFCDCGDTEAWKTGPFCVDHEP
B14: PS529: UBR-box domain homolog, SEQ ID NO: 157 (protein)
chain: B13 chain with S9G, S34N, V36I, F66L, V68A, D69N
modifications: Chelonia mydas
B15: Homo sapiens UBR2: SEQ ID NO: 174 (protein, listed as Homo sapiens)
chain: MGPLGSLCGRVFKVGEPTYSCRDCAVDPTCVLCMECFLGSIHRDHRYRMTTSGGGGFCDCGDTEAWKEGPYCQKHE
B16: PS517: UBR-box domain homolog, SEQ ID NO: 145 (protein)
chain: MMCGRVFKMGEPTYSCRECGVDSTCVLCVGCFQQSAHRDHKYKMGTSGGGGCCDCGDTEAWKRDPFCEIHMV
modifications: Harpegnathos saltator
B17: PS615: UBR-box domain homolog, SEQ ID NO: 175 (protein, listed as Kluyveromyces marxianus)
chain: MVNEHRGSQCSKQCHGTETVYYCFDCTKNPLYEICEECFDETQHMGHRYTSRVVTRPEGKVCHCGDISGYNNPEKAFQCKI
B18: PS616: UBR-box domain homolog, SEQ ID NO: 176 (protein, listed as Kluyveromyces lactis)
chain: B17 chain with V2H, E4D, E37D, T42S, M45I, G69S, N72D, E74K, K80R
B19: PS521: UBR-box domain homolog, SEQ ID NO: 149 (protein)
chain: MLCGRVFRSGEPTYSCRDCAVDPTCVLCIDCFNNGAHRKHKYRMSTSSGGGYCDCGDKEAWKTDPLCEIHRK
modifications: Lingula anatine
B20: PS537: UBR-box domain homolog, SEQ ID NO: 165 (protein, listed as Aedes aegypti)
chain: MVCGRVFKIGEPTYSCRECSMDPTCVLCSSCFKKSSHRLHKYKMSTSGGGGCCDCGDHEAWKRDPSCEEHAV
B21: PS541: UBR-box domain homolog, SEQ ID NO: 170 (protein)
chain: MRCGHIFRAGEATYRCITCAADDTCVLCSRCFDASDHTGHQYQISLSSGNCGCCDCGDEEAWRLPLFCAIHTD
modifications: Aspergillus neoniger
B22: PS530: UBR-box domain homolog, SEQ ID NO: 158 (protein, listed as Acropora millepora)
chain: MLCGKVFKVGEPTYSCRDCGYDNTCVLCINCFQKSIHKNHHYKMNTSGGGGVCDCGDVEAWKEGEACEIHQQ
B23: PS527: UBR-box domain homolog, SEQ ID NO: 155 (protein, listed as Mizuhopecten yessoensis)
chain: MLCGKVFKYGEPTYSCRDCANDPTCVLCIDCFQKSAHKKHRYKMSTSGGGGYCDCGDSEAWKTAPFCSNHKA
B24: PS524: UBR-box domain homolog, SEQ ID NO: 152 (protein, listed as Drosophila ficusphila)
chain: MVCGKVFKNGEPTYSCRECGVDPTCVLCVNCFKRSAHRFHKYKMSTSGGGGCCDCGDDEAWKKDHYCQLHLA
B25: PS531: UBR-box domain homolog, SEQ ID NO: 159 (protein, listed as Musca domestica)
chain: B24 chain with N9I, V21M, P23Q, R34Q, F39Y, D58E, Q68E, L69E, A72R
B26: PS515: UBR-box domain homolog, SEQ ID NO: 143 (protein, listed as Wasmannia auropunctata)
chain: MICGKMFKIGEPTYSCRECGMDSTCVLCVDCFKQSAHRNHKYKMGTSSGGGCCDCGDTEAWKKEPFCKTHVV
B27: PS533: UBR-box domain homolog, SEQ ID NO: 161 (protein, listed as Contarinia nasturtii)
chain: MVCGRVFKMNEPFYSCRECGMDPTCVLCVNCFKQSAHRHHKYKMGTSAGGGCCDCGDNEAWKQDHYCDEHTK
B28: PS539: UBR-box domain homolog, SEQ ID NO: 168 (protein, listed as Kazachstania africana)
chain: MQTSFTHKGRNCGRKFKVGEPLYRCHECGFDDTCVLCIHCFNPADHENHHIYTDICNDFTSGICDCGDTEAWNGDLHCKAEEI
B29: PS520: UBR-box domain homolog, SEQ ID NO: 148 (protein, listed as Monopterus albus)
chain: MLCGRVFKEGETVYSCRDCAIDPTCVLCMDCFQDSVHKSHRYKMHASSGGGFCDCGDVEAWKIGPCCSKHDP
B30: PS526: UBR-box domain homolog, SEQ ID NO: 154 (protein, listed as Maylandia zebra)
chain: B29 chain with C66Y
B31: PS519: UBR-box domain homolog, SEQ ID NO: 147 (protein, listed as Manduca sexta)
chain: MLCGRVFKQGEPAYSCRECGMDNTCVLCVECFKVSAHRHHKYKMGQSGGGGCCDCGDTEAWKRDPFCELHAA
B32: PS534: UBR-box domain homolog, SEQ ID NO: 162 (protein)
chain: MKCGHIFRKGEVFYRCKTCSVDSNSALCVKCFRATSHKDHETSFTVSAGSGGCCDCGNAAAWIGDVSCKIHSH
modifications: Schizosaccharomyces pombe

test system: amino acid at a terminal position of a polypeptide; details: Table 2; amino acid identity at a terminal position (phosphotyrosine also internal); inferred from literature and/or demonstrated by the inventors; cited from earlier work

Binding Pref., K, R, H:
B1, B2, B3, B4, B5, B6, B7, B8, B9, B10, B11, B12, B13, B14, B15, B16, B17, B18, B19, B20, B21, B22, B23, B24, B25, B26, B27, B28, B29, B30, B31, B32
